Test results as given in patent US20220380463A1 (Adimab, published 2022).

T1: Cynomolgus CD3εδ Fc heterodimer (Cy CD3ε Fc / CD3δ Fc-HIS) (cynomolgus, UniProt Q95LI8 22-100)
T1 chain 1: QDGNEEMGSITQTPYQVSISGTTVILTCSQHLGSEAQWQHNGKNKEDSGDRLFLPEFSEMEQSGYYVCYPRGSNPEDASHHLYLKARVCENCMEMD
T1 chain 2: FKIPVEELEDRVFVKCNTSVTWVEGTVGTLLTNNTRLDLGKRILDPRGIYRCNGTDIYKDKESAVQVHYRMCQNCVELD


Experiments:
[1] = target: T1, Cynomolgus CD3εδ Fc heterodimer (Cy …); experiment: BLI (Octet), IgG on AHC sensor, pH 6.0
[2] = target: T2, human CD3 on CD3+ Jurkat cells (human, UniProt P07766 23-207); experiment: flow cytometry on CD3+ Jurkat cells, ratio of MFI at pH 6.0 to pH 7.4
T2 construct: whole, on cells; Native CD3 complex on cells; the other CD3 chains are not specified for this assay; also called Human CD3+ Jurkat
T2 sequence (P07766 23-207): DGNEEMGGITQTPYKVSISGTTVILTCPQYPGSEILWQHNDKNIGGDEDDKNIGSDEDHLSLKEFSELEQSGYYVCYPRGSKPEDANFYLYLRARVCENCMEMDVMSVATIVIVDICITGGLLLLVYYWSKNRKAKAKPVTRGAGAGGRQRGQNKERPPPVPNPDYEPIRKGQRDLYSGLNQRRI
Experimental: (§1) Specificity of the anti-CD3 antibodies for human CD3+ Jurkat cells compared to CHO-S cells at pH 6.0 and 7.4 was determined using a FACS cell binding assay. Briefly, CD3+ human Jurkat cells and CHO-S cells were thawed and washed with cold PBSF buffer, pH 7.4 (PBS+0.1% BSA, pH 7.4). About 200,000 cells were aliquoted per well of a 96-well plate and pelleted by centrifugation (5 minutes at 500×g). The cells were washed with either PBSF pH 7.4 or PBSF pH 6.0 (PBS+0.1% BSA, pH 6.0), and then resuspended in 100 ul in either PBSF pH 7.4 or PBSF pH 6.0 with IgG antibody produced in yeast (100 nM). The mixture (cells+antibody) was incubated for 20 minutes on ice, then washed twice with either PBSF pH 7.4 or PBSF pH 6.0. Cells were resuspended in 50 ul of propidium iodide (1:500 dilution) and anti-human IgG-RPE (1:100 dilution) prepared in either PBSF pH 7.4 or PBSF pH 6.0, then incubated for 20 minutes on ice in the dark before cells were washed twice with either PBSF pH 7.4 or PBSF pH 6.0. Binding was analyzed on FACS Canto II.
(§2) Cell binding assays. CD3+ human Jurkat cells (ATCC) and CHO-S cells (Invitrogen/ThermoFisher) were thawed and washed with cold PBSF buffer, pH 7.4 (PBS+0.1% BSA, pH 7.4). About 200,000 cells were aliquoted per well of a 96-well plate (FACS Assay Plate VWR BD 353263) and pelleted by centrifugation (5 minutes at 500×g). The cells were washed with either PBSF pH 7.4 or PBSF pH 6.0 (PBS+0.1% BSA, pH 6.0), and then resuspended in 100 ul in either PBSF pH 7.4 or PBSF pH 6.0 with IgG antibody (100 nM) produced in yeast as described above. The mixture (cells+antibody) was incubated for 20 minutes on ice, then washed twice with either PBSF pH 7.4 or PBSF pH 6.0. Cells were resuspended in 50 ul of propidium iodide (Roche; 1:500 dilution) and anti-human IgG-RPE (Southern Biotech; 1:100 dilution) prepared in either PBSF pH 7.4 or PBSF pH 6.0, then incubated for 20 minutes on ice in the dark before cells were washed twice with either PBSF pH 7.4 or PBSF pH 6.0. Binding was analyzed on FACS Canto II.

[3] = target: T2, human CD3 on CD3+ Jurkat cells; experiment: flow cytometry, 100 nM IgG on CD3+ Jurkat cells, pH 6.0
Experimental: as §1, §2

[4] = target: T2, human CD3 on CD3+ Jurkat cells; experiment: flow cytometry, 100 nM IgG on CD3+ Jurkat cells, pH 7.4
Experimental: as §1, §2

koff [1] [s⁻¹] | MFI pH 6.0/MFI pH 7.4 [2] | MFI pH 6.0 [3] [MFI] | MFI pH 7.4 [4] [MFI] | Binder
0.00258 | – | – | – | SAD10319_P06_G09 (ADI-57431) (antibody, V domains shown, IgG; also called Ab161) VH: QVQLVQSGAEVKKPGASVKVSCKASGYTFESYDMHWVRQAPGPRLEWMGWIDAGTGATTYSQKFQGRVTITRDTSASTAYMELSSLRSEDTAVYYCARDAYHHYFYDVWGQGTLVTVSS VL: DIVMTQSPDSLAVSLGERATINCKSSQSLLNARTGKNYLAWYQQKPGQPPKLLIYWASTRESGVPDRFSGSGSGTDFTLTISSLQAEDVAVYYCKQSYSRRTFGGGTKVEIK
0.000866 | – | – | – | LAD9963_P01_E06 (ADI-57443) (antibody, V domains shown) VH: QVQLVQSGAEVKKPGASVKVSCKASGFNIKDYYMHWVRQAPGQRLEWMGWIDLENANTIYDAKFQGRVTITRDTSASTAYMELSSLRSEDTAVYYCARDAYGRYFYDVWGQGTLVTVSS VL: DIVMTQSPDSLAVSLGERATINCKSSQSLLNAHTGKNYLAWYQQKPGQPPKLLIYWASTRESGVPDRFSGSGSGTDFTLTISSLQAEDVAVYYCKQSYSRRTFGGGTKVEIK
0.0267 | – | – | – | SAD10319_P06_H10 (ADI-57435) (antibody, V domains shown, IgG; also called Ab165) VH: QVQLVQSGAEVKKPGASVKVSCKASGYTFESYDMHWVRQAPGPRLEWMGWIDAGTGNTKYSQKFQGRVTITADESTSTAYMELSSLRSEDTAVYYCARDHYGHYFYDVWGQGTLVTVSS VL: DIVMTQSPDSLAVSLGERATINCKSSQSLLNARTGKNYLAWYQQKPGQPPKLLIYWASTRESGVPDRFSGSGSGTDFTLTISSLQAEDVAVYYCKQSYSRRTFGGGTKVEIK
0.0035 | – | – | – | LAD9966_P01_A08 (ADI-57445) (antibody, V domains shown, IgG; also called Ab176) VH: QVQLVQSGAEVKKPGASVKVSCKASGFNIKDYYMHWVRQAPGQRLEWMGWIDLENANTIYDAKFQGRVTITRDTSASTAYMELSSLRSEDTAVYYCARDAYGRYFYDVWGQGTLVTVSS VL: DIVMTQSPDSLAVSLGERATINCKSSQSLLNARTGKNHLAWYQQKPGQPPKLLIYWASTRESGVPDRFSGSGSGTDFTLTISSLQAEDVAVYYCKQSYSRRTFGGGTKVEIK
– | 1.1 | 6040 | 5270 | LAD5224_P03_A01 (ADI-26906) (antibody, V domains shown, IgG; also called Ab1; parent clone) VH: QVQLVQSGAEVKKPGASVKVSCKASGFNIKDYYMHWVRQAPGQRLEWMGWIDLENANTIYDAKFQGRVTITRDTSASTAYMELSSLRSEDTAVYYCARDAYGRYFYDVWGQGTLVTVSS VL: DIVMTQSPDSLAVSLGERATINCKSSQSLLNARTGKNYLAWYQQKPGQPPKLLIYWASTRESGVPDRFSGSGSGTDFTLTISSLQAEDVAVYYCKQSYSRRTFGGGTKVEIK
0.00924 | – | – | – | SAD10319_P06_G11 (ADI-57432) (antibody, V domains shown, IgG; also called Ab162) VH: QVQLVQSGAEVKKPGASVKVSCKASGYTFTDYDMHWVRQAPGQRLEWMGWINAGDAATVYSQKFQGRVTITRDTSASTAYMELSSLRSEDTAVYYCARDAYGHYFYDHWGQGTLVTVSS VL: DIVMTQSPDSLAVSLGERATINCKSSQSLLNARTGKNYLAWYQQKPGQPPKLLIYWASTRESGVPDRFSGSGSGTDFTLTISSLQAEDVAVYYCKQSYSRRTFGGGTKVEIK
0.0285 | – | – | – | SAD10319_P06_H11 (ADI-57436) (antibody, V domains shown, IgG; also called Ab166) VH: QVQLVQSGAEVKKPGASVKVSCKASGYTFTDYDMHWVRQAPGHRLEWMGWINAGDAATVYSQKFQGRVTITRDTSASTAYMELSSLRSEDTAVYYCARDAYGHYFYDHWGQGTLVTVSS VL: DIVMTQSPDSLAVSLGERATINCKSSQSLLNARTGKNYLAWYQQKPGQPPKLLIYWASTRESGVPDRFSGSGSGTDFTLTISSLQAEDVAVYYCKQSYSRRTFGGGTKVEIK
0.000913 | – | – | – | LAD9956_P01_C03 (ADI-57440) (antibody, V domains shown, IgG; also called Ab171) VH: QVQLVQSGAEVKKPGASVKVSCKASGFNIKDYYMHWVRQAPGQRLEWMGWIDLENANTIYDAKFQGRVTITRDTSASTAYMELSSLRSEDTAVYYCARDAYGRYFYDVWGQGTLVTVSS VL: DIVMTQSPDSLAVSLGERATINCKSSQSLLNAHTHKNYLAWYQQKPGQPPKLLIYWASTRESGVPDRFSGSGSGTDFTLTISSLQAEDVAVYYCKQSYSRRTFGGGTKVEIK
0.00901 | – | – | – | SAD10319_P06_H07 (ADI-57433) (antibody, V domains shown, IgG; also called Ab163) VH: QVQLVQSGAEVKKPGASVKVSCKASGYTFVSYNMHWVRQAPGQRLEWMGSINAGDANTKYSQKFQGRVTITRDTSASTAYMELSSLRSEDTAVYYCARDHYGHYFYDVWGQGTLVTVSS VL: DIVMTQSPDSLAVSLGERATINCKSSQSLLNARTGKNYLAWYQQKPGQPPKLLIYWASTRESGVPDRFSGSGSGTDFTLTISSLQAEDVAVYYCKQSYSRRTFGGGTKVEIK
0.0231 | – | – | – | SAD10319_P06_H08 (ADI-57434) (antibody, V domains shown, IgG; also called Ab164) VH: QVQLVQSGAEVKKPGASVKVSCKASGYTFESYDMHWVRQAPGQTLEWMGWIDAGTGATTYSQKFQGRVTITRDTSASTAYMELSSLRSEDTAVYYCARDAYHHYFYDVWGQGTLVTVSS VL: DIVMTQSPDSLAVSLGERATINCKSSQSLLNARTGKNYLAWYQQKPGQPPKLLIYWASTRESGVPDRFSGSGSGTDFTLTISSLQAEDVAVYYCKQSYSRRTFGGGTKVEIK
– | 9 | 326 | 36 | SAD10318_P01_B02 (ADI-48582) (antibody, V domains shown, IgG; also called Ab248) VH: QVQLVQSGAEVKKPGASVKVSCKASGFNIKDYYMHWVRQAPGQRLEWMGWIDLENANTIYDAKFQGRVTITRDTSASTAYMELSSLRSEDTAVYYCARDHYHRYFYDVWGQGTLVTVSS VL: DIVMTQSPDSLAVSLGERATINCKSSQSLLNARTGHNHLAWYQQKPGQPPKLLIYWASTRESGVPDRFSGSGSGTDFTLTISSLQAEDVAVYYCKQSHSHRTFGGGTKVEIK
– | 77.1 | 5120 | 66 | SAD10318_P01_A03 (ADI-48587) (antibody, V domains shown, IgG; also called Ab36) VH: QVQLVQSGAEVKKPGASVKVSCKASGFNIKDYYMHWVRQAPGQRLEWMGWIDLENANTIYDAKFQGRVTITRDTSASTAYMELSSLRSEDTAVYYCARDHYHRYFYDVWGQGTLVTVSS VL: DIVMTQSPDSLAVSLGERATINCKSSQSLLNARTGHNYLAWYQQKPGQPPKLLIYWASTRESGVPDRFSGSGSGTDFTLTISSLQAEDVAVYYCKQSHSHRTFGGGTKVEIK
– | 1.2 | 5700 | 4800 | LAD9965_P01_H07 (ADI-48666) (antibody, V domains shown, IgG; also called Ab177) VH: QVQLVQSGAEVKKPGASVKVSCKASGFNIKDYYMHWVRQAPGQRLEWMGWIDLENANTIYDAKFQGRVTITRDTSASTAYMELSSLRSEDTAVYYCARDAYGRYFYDVWGQGTLVTVSS VL: DIVMTQSPDSLAVSLGERATINCKSSQSLLNARTGHNYLAWYQQKPGQPPKLLIYWASTRESGVPDRFSGSGSGTDFTLTISSLQAEDVAVYYCKQSYSRRTFGGGTKVEIK
– | 45.5 | 1730 | 38 | SAD10318_P01_A02 (ADI-48581) (antibody, V domains shown, IgG; also called Ab237) VH: QVQLVQSGAEVKKPGASVKVSCKASGFNIKDYYMHWVRQAPGQRLEWMGWIDLENANTIYDAKFQGRVTITRDTSASTAYMELSSLRSEDTAVYYCARDAYHHYFYDVWGQGTLVTVSS VL: DIVMTQSPDSLAVSLGERATINCKSSQSLLNARTHKNHLAWYQQKPGQPPKLLIYWASTRESGVPDRFSGSGSGTDFTLTISSLQAEDVAVYYCKQSYHHRTFGGGTKVEIK
– | 23.7 | 3550 | 150 | SAD10318_P01_B01 (ADI-48574) (antibody, V domains shown, IgG; also called Ab2) VH: QVQLVQSGAEVKKPGASVKVSCKASGFNIKDYYMHWVRQAPGQRLEWMGWIDLENANTIYDAKFQGRVTITRDTSASTAYMELSSLRSEDTAVYYCARDAYGRYHYDHWGQGTLVTVSS VL: DIVMTQSPDSLAVSLGERATINCKSSQSLLNAHTGHNYLAWYQQKPGQPPKLLIYWASTRESGVPDRFSGSGSGTDFTLTISSLQAEDVAVYYCKQSYSRRTFGGGTKVEIK
